Measurements: patent US6759384
Non-standard residues stand in square brackets, D forms with d. Phe(4-NH2) = Nc1ccc(C[C@H](N)C(=O)O)cc1; 2Nal = N[C@@H](Cc1ccc2ccccc2c1)C(=O)O; Hyp = O=C(O)[C@@H]1C[C@@H](O)CN1; Cha = N[C@@H](CC1CCCCC1)C(=O)O; Chg = N[C@H](C(=O)O)C1CCCCC1

What follows are substances tested against human factor Xa (Enzyme Research Laboratories, Inc.) (human) (UniProt P00742) (assay: chromogenic FXa inhibition).
Chain of human factor Xa (Enzyme Research Laboratories, Inc.) (human) (P00742 41-179 limits assumed, chain 1 of 2): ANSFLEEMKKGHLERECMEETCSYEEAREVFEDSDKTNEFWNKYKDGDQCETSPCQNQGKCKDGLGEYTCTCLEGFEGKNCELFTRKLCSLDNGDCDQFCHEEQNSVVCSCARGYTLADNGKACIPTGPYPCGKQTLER
Chain of human factor Xa (Enzyme Research Laboratories, Inc.) (human) (P00742 235-488 limits assumed, chain 2 of 2): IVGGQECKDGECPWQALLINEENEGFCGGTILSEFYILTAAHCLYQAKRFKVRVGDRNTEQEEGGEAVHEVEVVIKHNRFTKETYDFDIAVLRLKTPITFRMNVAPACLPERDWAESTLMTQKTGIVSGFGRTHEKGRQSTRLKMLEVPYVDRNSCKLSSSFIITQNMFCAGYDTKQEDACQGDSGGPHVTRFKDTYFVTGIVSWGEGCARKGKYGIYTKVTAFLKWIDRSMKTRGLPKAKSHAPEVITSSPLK

| Substance | Ki [µM] |
| --- | --- |
| 3-phenoxyproprionic-Y-Chg-R-NH2 (peptide) | < 100 |
| 5-Hic-Chg-R-NH2 (peptide) | < 100 |
| (2-benzofuroyl)-Phe(pNH2)-Chg-Dab(CH═N(CH3)2)-Leu-Pro-NH2 (peptide) | < 100 |
| (2-benzofuroyl)-Tyr-Chg-Arg-Pen-Pro-NH2 (peptide) | < 100 |
| (2-benzofuroyl)-pAph-Chg-Arg-Pen(CH2COOH)-Pro-NH2 (peptide) | < 100 |
| (2-benzofuroyl)-pAph-Chg-PalMe(3)-NH2 (peptide) | < 100 |
| (2-benzofuroyl)-pAph-Chg-PalMe(3)-Pen(CH2COOH)-Pro-NH2 (peptide) | < 100 |
| (2-fluorobenzoyl)-pAph-Chg-NH-(4-trimethyl-ammonium benzyl) (peptide) | < 100 |
| (2-furoyl)-pAph-Chg-NH-1-[3(N-methylpyridyl)]-1-(methylacetate)ethyl (peptide) | < 100 |
| (2-furoyl)-pAph-Chg-NH-(4-trimethyl-ammonium benzyl) (peptide) | < 100 |
| (2-pyridoyl)-pAph-Chg-PalMe(3)-NH2 (peptide) | < 100 |
| (2-quinolinoyl)-pAph-Chg-PalMe(3)-NH2 (peptide) | < 100 |
| (3,4-dichlorobenzoyl)-pAph-Chg-NH-(4-trimethyl-ammonium benzyl) (peptide) | < 100 |
| (3-pyridoyl)-Nal(2)-Chg-Arg-Leu-Pro-NH2 (peptide) | < 100 |
| (5-pyrazinoyl)Nal(2)-Chg-Arg-Leu-Pro-NH2 (peptide) | < 100 |
| (Alloc)-pAph-Chg-Arg-Leu-Pro-NH2 (peptide) | < 100 |
| (N-(5-methyl-2-thienoyl)-pAph-Chg-NH-(4-trimethyl-ammonium benzyl) (peptide) | < 100 |
| (iBu)Y-I-R-OH (peptide) | < 100 |
| (t-Butoxycarbonyl)-pAph-Chg-NH-(4-trimethyl-ammonium benzyl) (peptide) | < 100 |

| Substance | Ki [µM] |
| --- | --- |
| Ac-(3,5,5-Me-3-nHexyl)Y-I-R-NH2 (peptide) | < 100 |
| Ac-(4-MeO-Bzl)Y-I-R-NH2 (peptide) | < 100 |
| Ac-(Bzl)G-(Chx)Gly-(3-GuanidoPropyl)G-NH2 (peptide) | < 100 |
| Ac-(iBu)Y-Chg-R-NH2 (peptide) | < 100 |
| Ac-(iBu)Y-I-R-NH2 (peptide) | < 100 |
| Ac-(nBu)Y-I-R-NH2 (peptide) | < 100 |
| Ac-D-pAph-Chg-Arg-(carboxyethyl)Gly-Pro-NH2 (peptide) | < 100 |
| Ac-D-pAph-Chg-Arg-Cys-(CH2-COOH)-Pro-NH2 (peptide) | < 100 |
| Ac-D-pAph-Chg-Arg-Gla-Pro-NH2 (peptide) | < 100 |
| Ac-D-pAph-Chg-Arg-Leu-Pro-NH2 (peptide) | < 100 |
| Ac-D-pAph-Chg-Arg-N(carboxymethyl)Gly-Pro-NH2 (peptide) | < 100 |
| Ac-D-pAph-Chg-Arg-NH2 (peptide) | < 100 |
| Ac-D-pAph-Chg-Arg-N[1(1,3-dicarboxy)propyl)]Gly-Pro-NH2 (peptide) | < 100 |
| Ac-Nal(2)-Cha-R-D(O-Allyl)-NH2 (peptide) | < 100 |
| Ac-Pgl(OH)-I-R-L-NH2 (peptide) | < 100 |
| Ac-Y-Chg-R-NH-Bzl-4-OMe (peptide) | < 100 |
| Ac-Y-Chg-R-NH-CH2(2-(1-Et)pyrrolidinyl) (peptide) | < 100 |
| Ac-Y-Chg-R-NH-CH2(2-(6-EtO)benzylthiazolyl) (peptide) | < 100 |
| Ac-Y-Chg-R-NH-CH2CH2-COOH (peptide) | < 100 |

| Substance | Ki [µM] |
| --- | --- |
| Ac-Y-Chg-R-NH-CH2CH2-N(CH3)4 (peptide) | < 100 |
| Ac-Y-Chg-R-NH-Chx (peptide) | < 100 |
| Ac-Y-I-PalMe(3)-NH2 (peptide) | < 100 |
| Ac-Y-I-R-L-P-Dab(Ac-Y-I-R-L-P(G-A)3)-OH (peptide) | < 100 |
| Ac-Y-I-R-N(Me)O-CH3 (peptide) | < 100 |
| Ac-Y-I-R-Nle-Hyp (peptide) | < 100 |
| Ac-Y-I-R-Piperidyl (peptide) | < 100 |
| Ac-Y-Nva-R-NH2 (peptide) | < 100 |
| Ac-[Phe(4-NH2)][Chg]RL[Hyp]-NH2 | < 100 |
| Ac-pAph-Cha-PalMe(3)-(Me)Leu-Pro-NH2 (peptide) | < 100 |
| Ac-pAph-Chg-Arg (peptide) | < 100 |
| Ac-pAph-Chg-Arg(HOOC-CH2-CH2)Gly-Pro-NH2 (peptide) | < 100 |
| Ac-pAph-Chg-Arg-(HOOC-CH2)Gly-Pro-NH2 (peptide) | < 100 |
| Ac-pAph-Chg-Arg-Gla-Pro-NH2 (peptide) | < 100 |
| Ac-pAph-Chg-Arg-Leu-OH (peptide) | < 100 |
| Ac-pAph-Chg-Arg-NH2 (peptide) | < 100 |
| Ac-pAph-Chg-Arg-N[1(1,3-dicarboxy)propyl)]Gly-Pro-NH2 (peptide) | < 100 |
| Ac-pAph-Chg-Arg-Pen(CH2COOH)-Pro-NH2 (peptide) | < 100 |

Next, values leading:

| Ki [µM] | Substance |
| --- | --- |
| < 100 | 5-Bzim-CO-Chg-R-L-P-NH2 (peptide) |
| < 100 | (2-thienylacetyl)-pAph-Chg-NH-(4-trimethyl-ammonium benzyl) (peptide) |
| < 100 | (Ethoxycarbonyl)-pAph-Chg-NH-(4-trimethyl-ammonium benzyl) (peptide) |
| < 100 | (pOH)C6H4-CH2CH2(OH)-CO-I-R-L-Sar-NH2 (peptide) |
| < 100 | Ac-(4-pyridil-CH2-)Y-I-R-NH2 (peptide) |
| < 100 | Ac-(Bzl)Y-I-R-NH2 (peptide) |
| < 100 | Ac-(iBu)F(pNH2)-Chg-R-NH2 (peptide) |
| < 100 | Ac-(iBu-Nal(2)-Chg-R-L-P-NH2 (peptide) |
| < 100 | Ac-D-pAph-Chg-PalMe(3)-Leu-Pro-NH2 (peptide) |
| < 100 | Ac-F(pNH2)-Chg-R-NH2 (peptide) |
| < 100 | Ac-Nal(2)-Chg-R-NH2 (peptide) |
| < 100 | Ac-Pal(4)Me-Chg-Arg-Leu-Pro-NH2 (peptide) |
| < 100 | Ac-Pal(4)Me-Chg-Pal(4)Me-Leu-Pro-NH2 (peptide) |
| < 100 | Ac-Pal(4)Me-Chg-PalMe(3)-Leu-Pro-NH2 (peptide) |
| < 100 | Ac-Y-Chg-R(NO2)-{ψ(CH2NH)}-L-NH2 (peptide) |
| < 100 | Ac-Y-Chg-R-NH-CH2-Chx (peptide) |
| < 100 | Ac-Y-Chg-R-NH-CH2CH2-N-(CH3)2 (peptide) |
| < 100 | Ac-Y-Chg-R-NH-CH2CH2-O-CH3 (peptide) |
| < 100 | Ac-Y-I-R-L-P-Dab(Ac-Y-I-R-L-P(G-A)6)-OH (peptide) |
| < 100 | Ac-Y-I-R-NH2 (peptide) |
| < 100 | Ac-Y-I-R-NH-4-morpholinyl (peptide) |
| < 100 | Ac-Y-I-R-NH-CH2-4-Pyridyl (peptide) |
| < 100 | Ac-Y-I-R-NH-CH2CH2-N(CH3)2 (peptide) |
| < 100 | Ac-Y-I-R-NH-OCH3 (peptide) |
| < 100 | Ac-[2Nal][Cha]RLP-NH2 |
| < 100 | Ac-mAph-Chg-Arg-Leu-Pro-NH2 (peptide) |
| < 100 | Ac-pAph-Chg-Arg-Cys(CH2COOH)-Pro-NH2 (peptide) |
| < 100 | Ac-pAph-Chg-Arg-Leu-NH2 (peptide) |
